Here are results for 2 molecules from publication PMC12730314, “The Role of Surfactants in Stabilizing Fluorescence Anisotropy for Protein–Aptamer Binding Affinity Measurements”.

The target in data set [1] is T1, thrombin (human plasma) (Homo sapiens, UniProt P00734;P00734 328-363;364-622). Briefly: fluorescence anisotropy; no surfactant, 75 nM aptamer; Hill fit; Thrombin: TGK (192 mM Tris, 5 mM KH2PO4, 25 mM glycine hydrochloride; pH not stated) +/- 0.1% Tween 20, thrombin stock in 1 mg/mL BSA, 25 C, 40 min; HSA: PBS +. On the technique in general: Fluorescence polarisation rises when a labelled molecule tumbles more slowly, as on binding a larger partner.

For data set [2], the target named is T1, thrombin (human plasma). Briefly: fluorescence anisotropy; 0.1% Tween 20, 75 nM aptamer; Hill fit; Thrombin: TGK (192 mM Tris, 5 mM KH2PO4, 25 mM glycine hydrochloride; pH not stated) +/- 0.1% Tween 20, thrombin stock in 1 mg/mL BSA, 25 C, 40 min; HSA: PBS +.
The target in data set [3] is T1, thrombin (human plasma). Briefly: fluorescence anisotropy; 0.1% Tween 20, 50 nM aptamer; Hill fit; Thrombin: TGK (192 mM Tris, 5 mM KH2PO4, 25 mM glycine hydrochloride; pH not stated) +/- 0.1% Tween 20, thrombin stock in 1 mg/mL BSA, 25 C, 40 min; HSA: PBS +.
In data set [4] the target is T1, thrombin (human plasma). The data set is described as follows: fluorescence anisotropy; 0.1% Tween 20, 25 nM aptamer; Hill fit; Thrombin: TGK (192 mM Tris, 5 mM KH2PO4, 25 mM glycine hydrochloride; pH not stated) +/- 0.1% Tween 20, thrombin stock in 1 mg/mL BSA, 25 C, 40 min; HSA: PBS +.
Data set [5] concerns the target human serum albumin (HSA) (Homo sapiens, UniProt P02768 25-609). The data set is described as follows: fluorescence anisotropy; PBS + 5 mM MgCl2, no Tween 20; saturable, poor 1:1 fit; 25 C, 40 min; HSA: PBS +. As to conditions: protein: commercial.

Chain of human serum albumin (HSA) (P02768 25-609): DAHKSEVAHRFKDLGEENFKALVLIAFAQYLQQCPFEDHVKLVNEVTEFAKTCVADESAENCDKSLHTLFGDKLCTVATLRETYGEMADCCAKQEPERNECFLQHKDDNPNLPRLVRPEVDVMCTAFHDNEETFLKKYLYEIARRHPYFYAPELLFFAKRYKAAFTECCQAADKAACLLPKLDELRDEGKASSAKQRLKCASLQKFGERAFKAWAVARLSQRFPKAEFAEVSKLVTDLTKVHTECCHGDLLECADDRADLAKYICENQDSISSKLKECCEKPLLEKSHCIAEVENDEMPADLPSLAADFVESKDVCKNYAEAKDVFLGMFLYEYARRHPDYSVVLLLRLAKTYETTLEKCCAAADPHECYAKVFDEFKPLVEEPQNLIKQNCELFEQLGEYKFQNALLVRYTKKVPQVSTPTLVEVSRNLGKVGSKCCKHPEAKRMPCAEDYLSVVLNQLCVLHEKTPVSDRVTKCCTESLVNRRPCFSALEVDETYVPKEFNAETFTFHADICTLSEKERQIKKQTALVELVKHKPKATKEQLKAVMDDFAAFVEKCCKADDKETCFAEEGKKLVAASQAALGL

The term Kd denotes the constant that tells how readily two partners part at equilibrium. For AGTCCGTGGTAGGGCAGGTTGGGGTGACT (structured_DNA) [TR-labeled thrombin-binding 29mer], the dissociation constant (Kd) with thrombin (human plasma) [1] was 54 nM; with thrombin (human plasma) [2], 30 nM; with thrombin (human plasma) [3] it was 53 nM; with thrombin (human plasma) [4] it was 35 nM.
In the case of TCCACGATGTAGGATCCACATGAGCGCTCCTGTTACCCTG (ssDNA) [TR-labeled s10yh2], the binding result in data set [5] is “binds”.
